Measured values as given in a protein production outcome set (Wang et al. 2014).

Experiment: label from the status in PepcDB records
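Further: failed if final PepcDB status was selected cloned or expressed and not failed if soluble or beyond.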

Row | Sequence | protein production
1 | MGNTIRALVAFIPADRCQNYVVRDLREMPLDKMVDLSGSQLRRFPLHVCSFRELVKLYLSDNHLNSLPPELGQLQNLQILALDFNNFKALPQVVCTLKQLCILYLGNNKLCDLPSELSLLQNLRTLWIEANCLTQLPDVVCELSLLKTLHAGSNALRLLPGQLRRLQELRTIWLSGNRLTDFPTVLLHMPFLEVIDVDWNSIRYFPSLAHLSSLKLVIYDHNPCRNAPKVAKGVRRVGRWAEETPEPDPRKARRYALVREESQELQAPVPLLPPTNS | failed
2 | MKGTVGELGEFGLIRELTSRLTTTPAVRVGPGDDAAVVAAPDRRVVASTDILVEGRHFRRDWSTAYDVGRKAAAQNLADIAAMGAVPTALLLGLVVPAELPVTWPTELMDGLRDECQVAGASVVGGDVVRGDTITVSITALGDLRNQEPVTRAGAQPGDLVAVTGWLGWSAAGFAVLSRGFRSPRAFVEAHRRPEPPYHAGPAAAGLGATAMCDVSDGLIADLGHIAEASKVRIDVRSGQIDIPSQMNDIGQAVGVDPMQWVLTGGEDHAIVATFPPDVKLPARWKVIGEVLNPSALPQVTVDGAPWTSKGGWDHFGGDVES | failed
3 | ALQDRTQFSDRDLATLKKYWDNGMTSLGSVCREKIEAVATELNVDCEIVRTWIGNRRRKYRLMGIEV | not failed
4 | MDQCYFENSLSTECIIRSASRSDGCQMPKLFCQNLPPPLPPKKYAITSVPQSEKSESTPDVKLTEVFKATSHLPKHSLSTASEPSLEVSTHMNDERHKETFQVRECFGNTPNCPSSSSTNDFQANSGAIDAFCQPELDSISTCPNETVSLTTYFSVDSCMTDTYRLKYHQRPKLSFPESSGFCNNSLS | failed
5 | MIVASRSPLPLAPPMLFPASDDDVPFDDAPRILLFTGKGGTGKTTCAAATAQHAARQGHKTLVLSSDPAHSLADALDQELGPEAREVRDRLFAQEVDLYYSMKKHWGHMRELMLTVFRWQGVDQIAAEELAALPGMNEGSVLLWLEEALREADYDLIVVDSAPTGETLTLLTLPQVTQWWLAKAFPFQKMAVKSLGFGVRKATGIPLDKGYEELEVIFEKLERVQQVLATPSTTSIRLVTNPEKMVIEEARRAFTYLQLYGYGVDSVVVNRVLPEEEVPADSFFEGYVESQREYLEEIEQSFRPLPILQVPHLGEEVFGAERLGRIGDAMYAERNPTDVFYDEPTFTVEEDGDAYVLNLRLAFATEADVDVRQLGDQLVVQVANQRSNVILPNFLNYYHMTNAALEEGWLRVRFTPDGEASSN | failed
6 | MHLLVVEDDDIVRMLMVEVLDDLGYKVIEAEDATAALRVLEDPSQALALMMTDVGLPDMRGEELAGKARELRPLLPVLFASGYADSFNVPEGMHLIGKPFSIDQLRDTVVGILGTP | failed
7 | MKKILVHGVKEKTPLGFCDVPRKNLLDFLRDMKSISVPNEPRYKPLRKIHQAASDGDTERLQRMISLGKHSVHDRDFKERTALHFACACGQVEVVSILLRNNCDIDAADMNFITPLMKAVQNWTYECVCILLKHGADPNRKDKNGNTSLHYAVSEDNQTLAKCLLKYSANMEQKNKDGFTPLLLALKENKIEMAKFLVKMGANIHVFDDMRRNTLLYAIRWDSKDMVNLLLDEGIDFFFRDVFGWTALRYAIEGTSKGSREILMNYDEMLRRKNKDGIPEYKFFEDKSLDKHPNNPTSGCTFPKSNENACKFDDELDISKYVLGTCPNNIHGAGEEGDKSETKKAADVQVWTNPTLKSSTKGKVPNLNEVGTMTESHHFIKESDLEIESLVETFSYDNEDKQSMSDDGHFSGTTPKWCQNDTNRKITVQDCMYPNLKSPTEGKIPTRSKAGKMAESAHFIIESDLEIESLEETVSCDSEDKQLLV | failed
8 | MDSDPLGVFPNSPKYHPYYSQTTEFGGVIDLGLSLRTIQHEIYHSSGQIMTCGKGYCSNEGYRRKWGYVKVTMDGLVVGRKVCVLDHGSYSTLAHQLEDMFGMQSVSGLRLFQMESEFCLVYRDEEGLWRNAGDVPWNEFIESVERLRITRRNDAVLPF | failed
9 | VRQKGIDIIFMLDISNSMLARDTAPDRLTHAKTELLQISRRLGDGRKALLLFAGTPVVQCPLTDDEEDFEILLDMAAPELITTQGTDYRRAFDAALKLTNSGGELSSNETVLVLASDGEDHGNDLGDIATAMKTRGVHLHVIGVGGVQPVPIPMQGGPKRDQQGKIVLTSFKPEPLASLIKTAKGKFYYSRPDAPVHDAVADDIAAEAAEARW | failed
10 | MGRRFDHLGDVEAFIIVAEKGSMTEAAVALATTASVLSRAITRLETRLGAQLMRRTTRRLNLTDEGRAYLEQARAAFSMIDDAERAIQGPTGASLTGHVRISVPTTYGHHRLPAMLERFMQAYPEVQIELSITNRNVDLVAEGYDLAIRLGPLPDSGLVARKLEDASLRLVAAPHYLERAGMPQDVEDLAEHQCLPFVMPSTGRCAPWLFHVDGRDLDWTPPGRIQVFDDVLGVVSLAESGLGICQIYDFIIRDRVKEGRLVEVLDHAQGRFRPFSLIFAPHRRLSAATRTLIDFLVEK | failed
11 | MATAAASVVSSETGDLRAYMAANPAAVIEEVAKQWNVSPHAVIAALPDGMARLGPGDGFVAAMNDIATWGEVTLIVHTEDAIFEFTGEVPRGEISRGYFNLMQPKGLHGHLRHDRCGALAFVERPFMGKASAFVAFLNRDGGIMFKVFVGRDANRELRADQLARFHALAKQFSEEHSALEHHHHHH | failed
12 | MQPLVSVLICAYNVEKYFAQSLAAVVNQTWRNLDILIVDDGSTDGTPAIARRFQEQDGRIRIISNPRNLGFIASLNIGLDELAKSGGGGEYIARTDADDIASPGWIEKIVGEMEKDRSIIAMGAWLEVLSEENNKSVLAAIARNGAIWDKPTRHEDIVAVFPFGNPIHNNTMIMRRSVIDGGLRFDPAYIHAEDYKFWYEAGKLGRLAYYPEALVKYRFHQDQTSSKYNLQQRRTAWKIKEEIRAGYWKAAGIAVGADCLNYGLLKSTAYALYEKALSGQDIGCLRLFLYEYFLSLEKYSLTDLLDFLTDRVMRKLFAAPQYRKILKKMLRPWKYRSYLEHHHHHH | failed
13 | MTAHFRPAVYDLPRDGHTVFRWEHPPQQATVELERLQRKQSLAAAFRVFARLGFDMGGAGHITVRDPGRPDHFWVNPVGVYFGHVRVRDLLLVNPEGAVIEGEGALNLAAFAIHAALHEAHPEVVAAAHAHSLYGKAWSSLGRLLDPLTQDACAFYERHGLFDNFSGVVLEASEGVRIAAALAGRKALILQNHGLLTVGETVEAAVWRFIAMDNAAQTQLLAEAAGTPRPIPHEVARHTARQVGTEFGGWFSFQPYRERIVREEPDFLDLEHHHHHH | failed
14 | MIPLMHDFEGETVLVVGGGSVGARKARTFATEASVVVLSPEFGDRTFADAEKVRAAPTPEDATDWVERTDPALVVAATDDSDLNGAFSTAAAEHGALVNRTDDHGDQSFGNIVVPATVRDDPVTLAIATGGRAPALSKHLRERFEDEFGNAGLMADLVGDLREDLRDRGVPPAKRRDAVRFVVRSREVWKALDSGRSKGEQVARDVIGELPGDQT | not failed
15 | MSPPRDLPTLGRNTIPIPEFEMTRRNSKPGVRLLSVLVALGMAAPALAQAVTEPVTQPAIYPTPVSITLDGATIALGRSVVLVVAPGADKATVALVRSILSSAGVTKMATATRLPATLDRPHIVLGTGDAAVVRDALARSKARQDTHKEGYTLASVALDGGSLITLAGHDDDGLFHAAQTLRQLVERPAIPTLTIHDYPAMPIRGTIEGFYGAPWSMSDRSKHIDFLARTKANTFIYSPKDDPYARDRWRAPYPKATLKALGQLAATAKRNHVDFVYAISPGPTVCFSDPADAKALLRKFDAFRALGVRSFYVALDDIEYTKWNCERDKTAFGESGAQAAGIAQSHLLNLVQADLVARHDATSELIMVPTEYYDAKESPYKEALRKHLDPKIVVQWTGTDVVPPAISIPDARAATKAFGRKTLLWDNYPVNDFETSAGRLLMAPYARREAGLSAELSGIVSNPMNQEVPSRVAVMGLTAFAWNDKDYDAQRTWHAAARDLAGGDARVTAALLIFFDTQHLAPTFGSQPWQEQAPRLKAVLDHVREAIALGDAAARTQAIAELARTADEMAAAPQIIRDSVADKGFAKQSRPWLEAMEVWGGALQKTAAGLDAANRGDTQAPALFAEAAAHAAVAAVVPSIPGATRFDGPVKIADGVLDRFIAQAPRLIAYRVPAVADSAAAK | failed
16 | MNIRIAEELDVPALAELYQTTVLAVAPQHYSPEQTQMWASFASDTDNFQKFILNATTFIATDERGILGFAGITEDGHVTATYVRSDLIRQGIGSILMEKILEYAHLHKIRRLYAEASEFSLGLFQKFGFHIYDTEIVNRQGVLFRRYIVERS | failed
17 | MPVILCPAAEESSGLMMKSAETASLTVSHNELQAMAYTDPLTGLGNRNRMRDKVLQISAERASDPAPFTIGIANLDSFKPINDLFGSSAGDEILCQVAHRLRACIPDGALVTRHDGDEFAFVLPLIFERASAEKFGQMIREVLSAPYDLGDRNVRLSASFGFAIYPFAGEDCEELLKSAETALYRSKRRGRGQITVYSREIAQEMKRATQLEQALRNAIISDAIDVHFQPIVSLANNQVVGFEALARWNDPDLGFVSPGVFVPLAEERGFIDALSEALLRKAAEAALSWPRELFLSFNLSSAQLMDPGTSGSILSILGRVGFDPHRLELEITETAVMGSADTAHRIIADLRAAGVRISLDDFGTGQSSLGRLRDFIFDKIKIDRAFVSRINSDRASEHIIKAILSLCEGLELEVVAEGIEDYAEAVKLRTLGCGMGQGYHFGRPADGIATLRFLHENYYDMAPAERVSA | failed
18 | MRTVSHPTPLRRAPVQRRSAERLTRILDACADLLDEVGYDALSTRAVALRADVPIGSVYRFFGNKRQMADALAQRNLERYAERVTERLTEAGDGGWRGALDTVLDEYLAMKRTAPGFSLIDFGNQIPVGDRHAVPNHRVAERLTELLSGYLGRRPDDDLRRVFLVAVETADTLVQLAFRVAPDGDEKIIEEARELLRAYLGRVLD | not failed
19 | MAESTQMEVETATEGTVPLPPKPTFKPLKAHEMSDGKVQFRKIAVPPNRYSPLKKAWLDIYTPIYDQMKVDIRMNLKARKVELKTRADTPDISNLQKSADFVHAFMLGFDIPDAISLLRMDELYVESFEIKDVKTLKGEHLSRAIGRLSGKGGKTKFAIENSTKTRIVIADTRIHILGAFSNIKVARSSLCSLIMGSPAGKVYSKLRSVSARLNE | failed
20 | MGDSKGRVASAAVSLAEFLESCAGKWFSQRTSYRLGATQDWHQSDQTTLFVDFLAADAPELQALIAEQGLAIAALQSRWEATPQQPASTSLLVFLAEGDRLVHQRGDRCWQGRYQFEGDHRGLTLTTEQPDGQVEERFWFAHPNLRLRTSLIRDRTGLSRSSFYSEIRLGVKPPEPPAEV | failed
21 | MNLSQQNQHSNPITEAAKATFPYSVPMIAGFLFLGIAYGIYMKALGFGFLYPTLMALLIYAGSVEFIAAGALIAPFSPISVLLITLMISARQIFYGISMLEKYGIHIGKKRWYLITTLVDESFSLNYMAKIPPHLDKGWYMFFVSLYLHIYWVLGAAMGNLFGTVLPFNLKGVEFSMTALFLVIFAENWLKGKSHESSLLGLGIALVFLLIIGKEYFLIPTLIGIWLILTMRITKLETKLESLK | failed
22 | MTKTAKVNDIVRDWVVLDAKDKVFGRLITEIAVLLRGKHRPFYTPNVDCGDFVVVINANKVKFSGMKLEDKEYFTHSGYFGSTKSKTLQEMLEKAPEKLYHLAVRGMLPKTKLGKAMIKKLKVYRDDKHPHTAQTSKKDAK | failed
23 | MLSLAYGMVALIGYSVSFDKTTFRLLRGESNLFYTLAKWENNKLHVELPENIDKQSPTMTLIYDENGQLLWAQRDVPWLMKMIQPDWLKSNGFHEIEADVNDTSLLLSGDHSIQQQLQEVREDDDDAEMTHSVAVNVYPATSRMPKLTIVVVDTIPVELKSSYMVWSWFIYVLSANLLLVIPLLWVAAWWSLRPIEALAKEVRELEEHNRELLNPATTRELTSLVRNLNRLLKSERERYDKYRTTLTDLTHSLKTPLAVLQSTLRSLRSEKMSVSDAEPVMLEQISRISQQIGYYLHRASMHGGTLLSRELHPVAPLLDNLTSALNKVYQRKGVNISLDISPEISFVGEQNDFVEVMGNVLDNACKYCLEFVEISARQTDEHLYIVVEDDGPGIPLSKREVIFDRGQRVDTLRPGQGVGLAVAREITKQYEGKIVAGESMLGGARMEVIFGRQHSTPKDE | failed
